{"source": "patent US7211424B1", "about": "“Mammalian Subtilisin/kexin isozyme SKI-1: a proprotein convertase with a unique cleavage specificity” (Institut de Recherches Cliniques de Montreal, priority 1999, dated 2007)", "key": {"[1]": {"target": "T1, BTMD-SKI-1 (Homo sapiens, UniProt Q14703)", "T1 sequence (Q14703 187-997 limits assumed)": "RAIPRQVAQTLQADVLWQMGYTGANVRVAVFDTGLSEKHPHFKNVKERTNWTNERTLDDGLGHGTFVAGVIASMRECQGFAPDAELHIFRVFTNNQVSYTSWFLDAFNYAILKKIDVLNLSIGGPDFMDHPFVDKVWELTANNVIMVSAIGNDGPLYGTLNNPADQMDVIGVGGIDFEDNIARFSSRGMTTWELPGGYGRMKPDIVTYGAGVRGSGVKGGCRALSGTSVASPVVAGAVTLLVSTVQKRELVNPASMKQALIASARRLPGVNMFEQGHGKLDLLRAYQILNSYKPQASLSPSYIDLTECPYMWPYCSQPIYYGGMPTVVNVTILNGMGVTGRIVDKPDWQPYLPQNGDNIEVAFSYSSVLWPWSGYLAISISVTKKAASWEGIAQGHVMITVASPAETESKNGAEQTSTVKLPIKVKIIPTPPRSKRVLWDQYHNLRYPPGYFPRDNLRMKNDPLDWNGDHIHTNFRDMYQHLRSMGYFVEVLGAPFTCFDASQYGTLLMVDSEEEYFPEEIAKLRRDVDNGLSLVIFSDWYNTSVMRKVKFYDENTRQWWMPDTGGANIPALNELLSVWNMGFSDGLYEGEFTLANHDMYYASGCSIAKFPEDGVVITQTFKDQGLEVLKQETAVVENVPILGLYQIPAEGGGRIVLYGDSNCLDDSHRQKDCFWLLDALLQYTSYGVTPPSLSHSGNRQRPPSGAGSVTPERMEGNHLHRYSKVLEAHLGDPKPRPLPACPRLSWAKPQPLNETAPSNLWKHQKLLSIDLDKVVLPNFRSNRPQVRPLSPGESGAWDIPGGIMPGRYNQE", "T1 sequence (Q14703 17-137 partner limits assumed)": "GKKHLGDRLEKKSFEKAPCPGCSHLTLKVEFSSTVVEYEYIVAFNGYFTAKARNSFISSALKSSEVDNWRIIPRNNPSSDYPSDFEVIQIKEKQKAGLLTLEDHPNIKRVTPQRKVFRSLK", "assay": "biochemical", "type": "biochemical"}, "[2]": {"target": "T2, SKI-1 (Homo sapiens, UniProt Q14703)", "T2 sequence (Q14703 187-998 limits assumed)": "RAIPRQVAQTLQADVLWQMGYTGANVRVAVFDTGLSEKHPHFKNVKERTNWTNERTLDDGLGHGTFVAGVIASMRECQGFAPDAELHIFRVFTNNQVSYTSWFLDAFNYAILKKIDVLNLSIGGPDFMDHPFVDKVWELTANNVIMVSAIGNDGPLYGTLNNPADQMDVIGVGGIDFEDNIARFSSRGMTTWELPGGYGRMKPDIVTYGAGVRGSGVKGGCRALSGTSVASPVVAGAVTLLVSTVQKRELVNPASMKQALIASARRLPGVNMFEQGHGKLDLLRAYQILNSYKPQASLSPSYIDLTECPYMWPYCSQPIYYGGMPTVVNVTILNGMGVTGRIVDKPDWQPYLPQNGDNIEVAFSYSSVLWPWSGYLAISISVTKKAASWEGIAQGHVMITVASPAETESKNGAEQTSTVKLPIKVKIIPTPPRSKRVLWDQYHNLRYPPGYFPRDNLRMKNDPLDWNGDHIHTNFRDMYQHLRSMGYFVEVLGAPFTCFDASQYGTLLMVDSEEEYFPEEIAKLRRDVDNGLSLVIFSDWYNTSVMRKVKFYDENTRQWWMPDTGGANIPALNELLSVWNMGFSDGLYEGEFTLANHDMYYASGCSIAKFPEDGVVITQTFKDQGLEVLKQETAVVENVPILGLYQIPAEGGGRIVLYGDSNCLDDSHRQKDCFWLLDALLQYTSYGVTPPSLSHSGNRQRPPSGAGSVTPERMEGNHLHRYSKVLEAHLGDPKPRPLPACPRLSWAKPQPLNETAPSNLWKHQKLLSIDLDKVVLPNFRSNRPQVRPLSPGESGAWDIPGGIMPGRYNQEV", "type": "biochemical", "conditions": "overnight 37° C., pH 6.0; PMSF 0.5 mM + pAPMSF 50 μM, o-phenanthroline 5 mM, EDTA 10 mM"}, "[3]": {"target": "T3, shed-hSKI-1 (Homo sapiens, UniProt Q14703)", "T3 construct": "SKI-1 is further processed to remove the transmembrane domain that keeps it integrated in the ER membrane, which generates a SKI-1 soluble form; made in house; host or cells: HK293 cells stably transfected with full-length hSKI-1 in pcDNA3; shed enzyme in the medium", "assay": "Hydrolysis of quenched fluorogenic substrates by shed-hSKI-1", "type": "biochemical", "conditions": "in the presence of 10 mM EDTA", "experimental": "For digestions, each peptide was typically reacted at 37° C. with 10 μl of the concentrated enzyme preparation in a buffer consisting of 50 mM HEPES (N-2-Hydroxyethyl piperazine-N′-2 EthaneSulfonic acid) (ICN Biomedicals Inc), 50 mM MES (2-[N-Morpholino] EthaneSulfonic acid) (Sigma Chem Co.), and 3 mM Ca^2+-acetate (pH 6.5). The digestion products were separated by RP-HPLC on a Beckman 5 μm Ultrasphere C18 column (0.2×25 cm) and eluted with a 1%/min linear gradient of aqueous 0.1% TFA/CH3CN ([…]) at a flow rate of 1 ml/min. The collected peptides were characterized by mass spectrometry and amino acid composition, which was also used to quantitate the amount of various substrates and products. The digestions of the quenched fluorogenic peptides were analyzed by RP-HPLC using a dual UV (210 nm) and fluorescence (excitation and emission wavelengths of 320 and 420 nm, respectively) detector (Rainin).\nKm(app), Vmax(app) and Ki(app) determinations—Following digestion reactions with increasing substrate concentrations, the products were separated by RP-HPLC. The rate of substrate hydrolysis was obtained from the integrated peak areas of the chromatograms. […] For the two quenched peptides, kinetic parameters were determined as described (17)."}, "[4]": {"test_system": "SREBP mediated transcription", "assay": "SREBP target gene mRNA in HK293 cells overexpressing ProSKI-1 and SREBP-1 (Northern blot)", "type": "cell-based, human", "experimental": "Cell Culture: […] Total RNA was isolated with Trizol (Gibco BRL) reagent according to the instructions of the manufacturer. In order to extract proteins cells were washed and collected in PBS with protease inhibitors ( ). […] Samples were shaken at 4 C for 1 hour and centrifuged and the supernatant was frozen in aliquots at -70° C. Transfections: […] On day two medium containing appropriate selection agents (800 μg/ml Geneticin for pcDNA3neo, […] Zeocin for pcDNA3zeo) were added. The medium was changed every two days until defined colonies were evident. Colonies were isolated and formed stable cell lines were analyzed by immunoblotting with ProSKI-1 and SREBP-1 antibodies. […] After transfer filters were crosslinked by UV irradiation in a Stratalinker (Stratagene). Filters were prehydridized at 42° C. for 1 hour and hybridized with random labeled ^32P cDNA probes for 16-20 hours. UltrahybTM buffer (Ambion) was used. After hybridization filters were washed and exposed to film for indicated time and bands were quantified by densitometry. Primer pairs were used to clone cDNA probes: HMG CoA reductase [[NT] ID NO: 21)] [[NT] ID NO: 22)], farnesyl diphosphate [[NT] ID NO: 23)], [[NT] ID NO: 24)], Fatty acid synthase [[NT] ID NO: 25)], [[NT] ID NO: 26)], Acetyl CoA carboxylase [[NT] ID NO: 27)], [5' [NT]3 (SEQ ID NO: 28)], SREBP-1 [[NT] ID NO: 29)], [[NT] ID NO: 30)]. […]"}, "[5]": {"target": "T4, SKI-1 protease (Homo sapiens, UniProt Q14703)", "T4 construct": "endogenous in cells; the enzyme itself is not transfected", "T4 sequence (Q14703 187-1052)": "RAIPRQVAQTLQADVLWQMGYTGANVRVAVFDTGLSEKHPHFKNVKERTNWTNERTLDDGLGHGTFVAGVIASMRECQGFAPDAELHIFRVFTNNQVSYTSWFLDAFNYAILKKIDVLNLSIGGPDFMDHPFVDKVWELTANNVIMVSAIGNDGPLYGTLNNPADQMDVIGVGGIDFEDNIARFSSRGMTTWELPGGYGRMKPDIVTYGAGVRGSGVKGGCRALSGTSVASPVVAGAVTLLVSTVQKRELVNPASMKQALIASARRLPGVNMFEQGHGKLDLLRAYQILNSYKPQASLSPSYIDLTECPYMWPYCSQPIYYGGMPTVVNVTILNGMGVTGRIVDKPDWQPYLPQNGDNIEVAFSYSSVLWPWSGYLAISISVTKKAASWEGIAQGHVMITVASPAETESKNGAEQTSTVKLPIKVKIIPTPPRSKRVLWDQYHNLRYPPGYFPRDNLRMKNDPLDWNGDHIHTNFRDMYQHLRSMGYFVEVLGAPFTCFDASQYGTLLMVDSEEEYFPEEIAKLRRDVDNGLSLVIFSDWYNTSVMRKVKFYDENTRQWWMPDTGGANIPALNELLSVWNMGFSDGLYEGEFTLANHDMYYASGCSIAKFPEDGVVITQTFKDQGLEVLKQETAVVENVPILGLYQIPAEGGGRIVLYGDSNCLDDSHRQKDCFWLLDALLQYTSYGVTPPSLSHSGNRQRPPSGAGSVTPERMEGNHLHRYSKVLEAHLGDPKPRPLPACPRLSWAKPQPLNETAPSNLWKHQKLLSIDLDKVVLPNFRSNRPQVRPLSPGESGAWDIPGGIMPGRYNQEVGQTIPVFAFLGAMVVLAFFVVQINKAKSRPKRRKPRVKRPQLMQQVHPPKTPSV", "assay": "SREBP-1 processing in stable HK293 cell lines overexpressing ProSKI-1 and SREBP-1 (immunoblot)", "type": "cell-based", "experimental": "Cell Culture: HK293 cells were maintained as monolayers in Dulbecco's modified Eagle's medium containing 100 units/ml penicillin and 100 μg/ml streptomycin sulfate (medium A) supplemented with 10% fetal calf serum. 24 hours before RNA and protein extractions medium A was supplemented with 5% lipoprotein deficient serum, 50 μM mevalonate (Sigma), 50 μM compactin (Sigma) and with no sterols or 1 μg/ml of 25-hydroxy-cholesterol and 10 μg/ml of cholesterol. 4 hours before protein extraction 25 μg/ml N-acetyl-leucinyl—leucinyl norleucinal was added. Total RNA was isolated with Trizol (Gibco BRL) reagent according to the instructions of the manufacturer. In order to extract proteins cells were washed and collected in PBS with protease inhibitors ( ). After addition of buffer A (Triton×100 1%,50 mM tris maleate, 2 mM CaCl2, inhibitor coctail ( ), and ALLN) cells were mixed with pipette and allowed to swell on ice for 20 minutes Then the solution was centrifuged for 5 minutes at 15, 000 rpm and supernatants representing membrane proteins were collected and stored until analyzed at −70° C. […]\nTransfections: HK293 cells were plated at a density of 5×10^5 /60 mm dish in medium A with 10% fetal calf serum and were cultured until they were 40–60% confluent. […] Colonies were isolated and formed stable cell lines were analyzed by immunoblotting with ProSKI-1 and SREBP-1 antibodies. […]"}, "[6]": {"target": "furin (Homo sapiens, UniProt P09958)", "sequence (P09958 108-794, species assumed)": "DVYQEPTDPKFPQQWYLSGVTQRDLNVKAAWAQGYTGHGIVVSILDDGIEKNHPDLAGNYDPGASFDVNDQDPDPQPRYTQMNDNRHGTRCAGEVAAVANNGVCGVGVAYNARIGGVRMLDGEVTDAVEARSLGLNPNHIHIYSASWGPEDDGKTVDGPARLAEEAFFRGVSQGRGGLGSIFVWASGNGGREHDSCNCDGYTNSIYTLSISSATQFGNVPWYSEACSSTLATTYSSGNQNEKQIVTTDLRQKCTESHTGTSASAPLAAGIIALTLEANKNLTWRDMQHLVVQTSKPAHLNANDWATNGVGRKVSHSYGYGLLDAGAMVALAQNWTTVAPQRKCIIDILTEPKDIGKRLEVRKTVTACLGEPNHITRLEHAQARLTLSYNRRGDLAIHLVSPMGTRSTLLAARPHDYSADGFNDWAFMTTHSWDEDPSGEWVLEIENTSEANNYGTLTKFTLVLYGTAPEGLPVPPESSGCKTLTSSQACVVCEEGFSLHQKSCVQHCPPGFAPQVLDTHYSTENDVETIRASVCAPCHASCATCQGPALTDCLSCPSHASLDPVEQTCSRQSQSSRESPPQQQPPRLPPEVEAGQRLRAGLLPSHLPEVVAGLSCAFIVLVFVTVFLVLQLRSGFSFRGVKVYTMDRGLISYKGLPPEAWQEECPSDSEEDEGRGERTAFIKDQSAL", "assay": "Specificity of ProSKI-1: processing of neurotrophin-3 (NT-3), a substrate not processed by SKI-1", "type": "cell-based"}}}
{"molecule": "O=C(O)CN(CCN(CC(=O)O)CC(=O)O)CC(=O)O", "note": "[EDTA]", "values": [{"measurement": "Hydrolysis of SREBP-2 peptide (% of control)", "setting": "[1]", "result": "0 % of control"}, {"measurement": "inhibition of the processing of proBDNF by SKI-1", "setting": "[2]", "result": "effectively inhibit"}, {"measurement": "cleavage of quenched fluorogenic peptide at the RSLK↓ site", "setting": "[3]", "result": "completely abolished"}]}
{"molecule": "ProSKI-1: the 188 amino acids that make up the signal peptide and the prosegment of SKI-1, expressed in HK293 cells (protein) GKKHLGDRLEKKSFEKAPCPGCSHLTLKVEFSSTVVEYEYIVAFNGYFTAKARNSFISSALKSSEVDNWRIIPRNNPSSDYPSDFEVIQIKEKQKAGLLTLEDHPNIKRVTPQRKVFRSLKYAESDPTVPCNETRWSQKWQSSRPLRRASLSLGSGFWHATGRHSSRRLLRA", "values": [{"measurement": "mRNA levels of LDL-receptor, HMG-CoA reductase, farnesyl diphosphate and fatty acid synthase", "setting": "[4]; HK293 cells, with and without lipids, early passages of previously frozen cell lines", "result": "greatly reduced"}, {"measurement": "target gene mRNA levels", "setting": "[4]; same clones kept in culture for further passages", "result": "normal or even higher than in control cells"}, {"measurement": "processing of cytoplasmic proSREBP-1 into intermediate form(s)", "setting": "[5]; HK293 cell lines overexpressing SREBP-1 together with ProSKI-1", "result": "formation of the intermediate form(s) of SREBP-1 was abolished"}, {"measurement": "nuclear SREBP-1", "setting": "[5]; HK293 nuclear extracts, absence of sterols", "result": "Only minute amounts of nuclear SREBPs were detected"}, {"measurement": "level and furin-derived processing of NT-3", "setting": "[6]", "result": "unaffected"}]}
